Experimental data as given in the nanobody polyreactivity screen of Harvey et al. (2022).

experiment: yeast display, Sf9 membrane polyspecificity reagent, FACS + sequencing; frameworks hold sequencing errors
Summary of the method: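 Nanobodies from a synthetic yeast display library (Saccharomyces cerevisiae BJ5465), induced 36–48 hours with galactose, were stained 1 hour at 4 °C with 10% biotinylated, detergent-solubilized Sf9 membrane reagent, enriched on streptavidin microbeads, then FACS-sorted. Anti-HA (expression) and streptavidin (reagent binding) fluorescence set low and high (top ~1%) gates. Polyreactivity labels come from the gate of origin. Genes were colony-PCR amplified, MiSeq 2 × 250 sequenced and filtered by CDR length.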

Sequence | polyreactivity (PSR sort gate)
QLQLVESGGGLVQAGGSRRISCAASGRTFDSNAMGSYRHAPGKERELVAAIYADSVKGRFTISRENAKNTVSLQMNFLKPEDTAVYYCAAETYSGQTYLGEYDFWGQGTQVTVSS | low polyreactivity
QLQLVESGGGLVQARGSLRLICADSGRIFTSYTMGWYRQAPGKERELVAAIDWSGGTTYYADSVKGPFTISRDNAKNTVYFQMISLKPEDTAVYYCSALYVIVGYYTYEYWGQGTQVTVSS | low polyreactivity
QLQLVESGRGLVQAGGSLRLSCAASGSTFQLYTMGLYRQAPGKERELVAAITGSGGSTYYADSVKGRFTISRDNAKNTVYLQMNSLKPEDTAVYYCAAKSSFRIAWEYYYWGQGTQGTVSS | high polyreactivity
QLQLVESRGGLVQAGGSLRVSCAASGRISQIYAMGWSRQAPGKERELVARITSTDSTYYADSVKGRFTISRDNAKNTVYLQMNSLKPEDTAVYYCAASWWSPYDYWGQGTQVTVSS | low polyreactivity
QLQLVESVGGLDQAGGSLRLSCAASGSIFIRNAIGSYRQAPGKERELVAAISSTGSTYYADSVKGRFTISRDNAKNTVYLQMNSLKPEDTAVYYCADYYTVAMDYWGQGTQVTVSS | low polyreactivity
QLQLVESVGGLDQAGGSLRLSCAASRSNFGPYAIGWYRQAPGKERELVAAITWSGDSTYYADSVKGRFTISRDNEKNTVYLQMNSLKPEDTAVYYCAAETFIWGKGTQVTVSS | low polyreactivity
QLQLVESVRGLVQAGGSLRLSCAASGGIFDTYAKGWYRQAPCKERELVASISRSGSTNYADSVKGRFTISRDNAKNTVYLQMNSLKPEDSAVYYCAADVFYSIYDYWGQGTQVTVSS | low polyreactivity
QLQLVETGGGLVQAGGSLRLSCASSGRTFTAYAMVWYREAAGKESELVAAITLSGGRTYYADSVKGRFTISRDNAKNTVYLQMNSLKPEDTAVYYCATDYYWGQGTQVTVSS | high polyreactivity
QLQQHESGGGLVQAGDSPRLSCAESDNIFPDSVMCWYLQAPGKERELVATIGFGATTNYADSVKGRFTISRDNAKNTVYLQMNCLKPEDTAVYYSAADPLNYEYFCYWGQGTQVTVSS | low polyreactivity
QLQRVESGGGLVQAGGSLRLSCAASGSIFNENAMGWYIQAPGKERELVAGIDSGGNTYYADSVKGRFTISRDNAKNTVYLQMISLKPEDTAVYYCAKRGVPVRASATFLFEFDYWGQGTQVPVSS | low polyreactivity
QQQLQESGSGLVQAGGSLRLSCAASGNIFQDWVMGWYRQAPGKERELVAAISPGAITYYADSVKGRFTISRDNAKNTVYLQTNSLKPEDTAVYYCAAYYIVEYLHGYWGQGTRVTVSS | low polyreactivity
QVELVESGGALVQAGGSLSLSCAASGIIFSIYAMGWDRQAPGKERELVAAITYSGGRTYYADSVKGRFTISRDNAKNTVYLQMNSLKPEDTAVYYCAAVGYGEYYWGQGTQVTVSS | high polyreactivity
QVELVESGGGLVQAGGSLRLSCAASGGTFYRYAMGWYRQAPGKEREFVASITQRGGRTYYADSVMGRFTISRDNAKNTVYLQMNSLIPEDTACYYCAAQGYKYWHGDGSDYWGQGSQVTVSS | high polyreactivity
QVELVESGGGLVQAGGSLRLSCAASGRIFFYNGMGWYRQAPGKERELVAAINRSGGSTYYADSVKGRFTISRDNAKNTVYLQMNSLKPEDTAVYYCNAASFTVPMDYWGHGTQVTVSS | low polyreactivity
QVELVESGGGLVQAGGSLRLSCAASGRISYLYTMGWYRQAPGKERELFAASRWRDGSTYYADSVKGRFTISRDNAKTTVYLQMNSLKPEDTAVYFCGATPVGFYWYDYWGQGTQVTVSS | low polyreactivity
QVELVESGGGLVQAGGSLRLSCAASGSTFYYNAMGWYRQGPGTERELVAASTFTGGSTYADSVKGRFTISRDNAKNTVYLQMTSLKPEDTAVYYCAATIQRHDYLGTGYDYWGQGTQVTVSS | low polyreactivity
QVELVESGGGLVQAGRSLRLSCAASGRILVSYAMGWYRQAPGKERELVAGITSGGDSTYYADSVKGRFTISRDNAKNTVYLQMNSLKPEDTAVYYCDADRDSYRGRKNVRERYTYWGQGTQVTVSS | high polyreactivity
QVELVESGGGLVQPGGSLRLSCAASGSTFYYYAMGWYRQAPGKERELVATISSGSSTNYADSVKGRFTISRDNAKNTVYLQMNSLKPEDTAVYYCAADRWYITLSIDATISYEYWGQGTQVTVSS | low polyreactivity
QVEVVESGGGLVQAGGSLRLSCAASGRNFRFNAMGWYRQAPGKERELVAAISFRGGSTYYADTVKGRFTISRDNAKNTVYGQINSLKPEDPAVYYCAARARTGTYRDMYYWGQGTQVTVSS | high polyreactivity
QVHHEESGGGLVQAGGSLRLSCAASGGIFYLNDMGWYRQAPGKERELVAAITGTGGNTYYADSVKGRFTISRDNAKNTVYLQMNSLKPEDTAVYYCAAQHYWVTSYLSSYDYWGQGTQVTVSS | low polyreactivity
QVHHVESGGGLVQAGGNLRLSCQASGSTFDENDMGWYRQPQGKERELVAVISICTSTNYADSVKGRFTISRDNAKNTVYLQMNSLKPEDTAVYYFDAFVPGSYLDAIVGNAFNYWGQGTQVTVSS | low polyreactivity

Sequence | polyreactivity (PSR sort gate)
QVHIVESGGGLVQAGGSLRLICAASGRTFNGYVMGWYRQAPGKEREFVAVINWSGGNTYYADSVKGRFTISRDNAKNTVYLQMNSLKPEDTAVYYCAARRVRSYAYDYWGQGTQVTVSS | high polyreactivity
QVHIVESGGGLVQAGGSLRLSCADSGSIFLSNVMGSYRQAPGKERELVDDITRSGGSTYYADSVKGRFTISRDNAKNTVYLQMNSLKPEDTAVYYCNAYEYLSAGYDYWGQGTQVTVSS | low polyreactivity
QVHLEESGGGLVQEGGSHRLSCAASGGTFFSYDMGWYRQAPGKERELVAAISATGGSTYYADSVKGRFTISRDNAKNTVYLQMNSLKPEDTAVYYCNAYQESGTYLRMDYWGQGTQVTVSS | low polyreactivity
QVHLLESGGGLFQPGGSLRLSCAASGRIFTSYAMGWYRPAPGKESELVAAISWGGGRTYYADSVKGRYTISRDNAKNTVYLQMNSVKPEDTAVYYCAALIADRDSPYDYWGQGTQVTVSS | high polyreactivity
QVHLLESGGGLVQAGGSLRLSCAAPGSTLFNYDMGWSRQAPGKERELLAAITTSGDSTYYADSVKGRFTISRDNAKNTVYFQMNSLKPEDTAVYYCNADVFKTVFYIDRYYYWGQGTKVTVSS | low polyreactivity
QVHLQESGDGLLQAVGSLRLSCAASGYISGYYYRGWYRQAPGKERELVAGIDAFGSSTNYADCVKGRFTISRDNSTNTVYLQMNSLKPEDTAVYYWAARPDGDRLFSYWGQGTQVTVSS | low polyreactivity
QVHLQESGGGLVQAGGSLRLSCAASGTISDSGLMGWYRQAPGKERELVAGISSGGINNYADSVKGRFTISRDNAKYTEYLQMNSLKPEDTAVYWGQGTQVTLSS | low polyreactivity
QVHLQESGGGLVQAGGSLRLSCAASRTIFRISDMGSYRQAPGKEREFVAAITYGANTYYADSGKGRFTISRDNAKNSVYLQMNSLKADDTAVYYCAVPPVKETILDYWGQGTQVNVSS | low polyreactivity
QVHLQESGGVQAGGSLPQSCAASGNISRSDVMGWYRQAPPKERELVATINNGTITYYADSVKGRFTISRDHAKNTVYLHMNSLKQEDTAVQYCAVVQSDTDSLYYWGQGTQVTVSS | low polyreactivity
QVHLQESGSGLVQAGGSLRLSCAASGAIFPAYLMGWYRQAPGKERELVAGSSYGSITYCADSVKGRFNISRDNAKNTVYLQMNSLKPEDTAVYYCAVLRPGGDEYYYWGQGTKVTVSS | low polyreactivity
QVHLVDSGGGLVQAGGSLRLSCAASGSIIVFYAMGWYRQAPGKERELVAAITDSGSTNYADSVKGRFTISRDNAKNTVYLQMNSLKPEDTAVYYCDWSYYVLRRYRVARYDSGGQGTQVTVSS | low polyreactivity
QVHLVDSGGGLVQAGGSLRLSCAATGFTFWYYAMGWYRQAPWKERELVATITWNGGSTYYADSVKGRFTISRDNAKNTVYIQMNSLQPEDTAVYYCNKSYISSSSWQYYYWGQGTQVTVSS | low polyreactivity
QVHLVDSGGGLVQAGGSLRLSSADSGSTFAANAIGWYRQAPGKERELVAAITSSGGSTYYADSVKGRFTISRDNATNTVYLQKNSLKPEDTAVYYCNKDMERYVRIYDSWGQGSQVTVSS | low polyreactivity
QVHLVDSGGGLVQAGGSLRLTCAASGSSFWAYVMGWYRQAPGKERELVAAISKSGVRTHYADSVKGRFTISRDNAKTTFYLQMNSLKPEDTAVYYFAAVGFGNLDDYWGQGTQVTVSS | high polyreactivity
QVHLVDSRGVLVQAGGSLRLSCAASGRTFFHYAMGWYRQAPGKERELVAAITYRGTSTYYADSVKARFTISRDYAKNTVYLQMNSLKPEATAVYYCNAYTTRGGWSYRGDSWGQGTQVTVSS | high polyreactivity
QVHLVEAGGGLVQAGGSLRLSCAASACTFWPYARGLSSQAPGQDTELVAAMTSSGSTNYADSVKGRFTITRDNAKNTDYLQMNSLKPEDTAVNYCAADHRPSRFQSSVHLYYYWGQGTQVTVSS | low polyreactivity
QVHLVESAGGLVQAGGSLRLSSDSSGLIFYRYAMGWYRQAPGKERELVAAITSRSGRTYYADSVKGRFTFSRDNAKNTVYLQMNSLKPEDTAVYYCNAEWRSRYDYWGQGNQVTVSS | high polyreactivity
QVHLVESCGGLVQAGGSLRLSCAASGFTFYTYTMGWYRQAPGKERELVAVISRSGGSTYYADSVKGRFTISRDNAKNTVYLQMNSLKPEDTAVYYCNAGYWRFIDSYDYWGQGTQVTVSS | high polyreactivity
QVHLVESCGGLVQAGGSLRLSCAASGSTFTYNVMGSYRQAPGKERELVAAISWSGGSTFYADSVKGRFTISRDNAKNTVYLQMNSLKPEDTAVYYCNKDHLVYPSEFYYWGQGTQVTVSS | low polyreactivity
QVHLVESCGGLVQAGGSLRLSCAASGSTIETYAMGWNRQAPGKDREMVATISLSGGRTYYADSVKGRFTISRDYAKNTVYLQMNSLKPEDTEVYYCNADGYGNVGGGDSWGQGTQVTVSS | low polyreactivity
